According to patent US20200283521A1 (GRANULAR THERAPEUTICS, published 2020):
Read-outs that look alike come from different tables or passages of the source.

Experiments:
Assay in all cases: cell array, transfected fixed HEK293 cells
KRT19 [1] = target: T1, KRT19 (human, UniProt P08727)
T1 construct: expressed in transfected HEK293 cells
T1 sequence (looked up): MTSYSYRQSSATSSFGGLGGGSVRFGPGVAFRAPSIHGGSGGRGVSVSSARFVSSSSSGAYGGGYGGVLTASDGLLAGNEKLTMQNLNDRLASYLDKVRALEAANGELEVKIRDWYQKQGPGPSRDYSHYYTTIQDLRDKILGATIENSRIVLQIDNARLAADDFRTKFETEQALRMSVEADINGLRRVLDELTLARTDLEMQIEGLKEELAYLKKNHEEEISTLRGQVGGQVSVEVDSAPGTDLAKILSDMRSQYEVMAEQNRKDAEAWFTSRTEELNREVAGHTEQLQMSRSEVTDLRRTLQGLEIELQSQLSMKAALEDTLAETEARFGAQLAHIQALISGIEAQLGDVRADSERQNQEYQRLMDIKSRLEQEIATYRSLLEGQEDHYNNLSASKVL
Experimental: (§1) Transfection of all plasmids was confirmed by screening for the co-encoded marker ZS green (FIG. 13A).
(§2) Primary hits (duplicate spots) were identified by analysing fluorescence (AF647 and ZsGreenl) on ImageQuant. Vectors encoding all hits were sequenced to confirm their correct identities. […] Slides were analysed as above.

MSN = target: T2, MSN (human, UniProt P26038)
T2 construct: expressed in transfected HEK293 cells
Experimental: as §1, §2

TGM2 [2] = target: T3, TGM2 (human, UniProt P21980)
T3 construct: expressed in transfected HEK293 cells
T3 sequence (looked up): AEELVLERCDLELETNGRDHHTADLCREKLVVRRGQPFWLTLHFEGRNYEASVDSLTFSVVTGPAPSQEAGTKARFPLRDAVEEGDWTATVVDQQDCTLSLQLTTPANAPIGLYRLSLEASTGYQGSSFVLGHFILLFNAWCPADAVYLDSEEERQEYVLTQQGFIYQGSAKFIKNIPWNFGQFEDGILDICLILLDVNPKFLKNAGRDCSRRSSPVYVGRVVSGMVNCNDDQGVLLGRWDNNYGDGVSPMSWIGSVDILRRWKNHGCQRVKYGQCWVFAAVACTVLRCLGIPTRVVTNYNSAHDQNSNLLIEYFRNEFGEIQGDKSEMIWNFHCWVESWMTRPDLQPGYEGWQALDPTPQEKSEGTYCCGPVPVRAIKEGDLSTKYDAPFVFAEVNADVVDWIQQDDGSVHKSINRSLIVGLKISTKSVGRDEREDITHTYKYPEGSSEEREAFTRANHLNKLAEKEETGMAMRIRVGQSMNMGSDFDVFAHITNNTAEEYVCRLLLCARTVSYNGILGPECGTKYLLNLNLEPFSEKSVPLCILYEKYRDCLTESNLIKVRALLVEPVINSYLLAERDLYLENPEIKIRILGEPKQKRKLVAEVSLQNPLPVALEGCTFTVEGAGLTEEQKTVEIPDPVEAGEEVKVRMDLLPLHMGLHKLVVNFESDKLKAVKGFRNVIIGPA
Experimental: as §1, §2

ZG16B = target: T4, ZG16B (human, UniProt Q96DA0)
T4 construct: expressed in transfected HEK293 cells
T4 sequence (looked up): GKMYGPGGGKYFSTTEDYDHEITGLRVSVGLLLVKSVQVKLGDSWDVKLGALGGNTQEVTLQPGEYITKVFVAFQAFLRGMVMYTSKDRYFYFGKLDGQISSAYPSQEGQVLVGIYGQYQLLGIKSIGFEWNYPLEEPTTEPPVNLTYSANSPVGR
Experimental: as §1, §2

OSM = target: T5, OSM (human, UniProt P13725)
T5 construct: expressed in transfected HEK293 cells
T5 sequence (looked up): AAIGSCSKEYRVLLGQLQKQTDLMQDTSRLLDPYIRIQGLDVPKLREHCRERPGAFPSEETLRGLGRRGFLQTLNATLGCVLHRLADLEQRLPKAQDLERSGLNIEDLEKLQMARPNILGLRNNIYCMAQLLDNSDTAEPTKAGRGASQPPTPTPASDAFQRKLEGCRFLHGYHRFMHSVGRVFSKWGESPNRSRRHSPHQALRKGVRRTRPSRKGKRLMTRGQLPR
Experimental: as §1, §2

PPT1 [3] = target: T6, PPT1 (human, UniProt P50897)
T6 construct: expressed in transfected HEK293 cells
T6 sequence (looked up): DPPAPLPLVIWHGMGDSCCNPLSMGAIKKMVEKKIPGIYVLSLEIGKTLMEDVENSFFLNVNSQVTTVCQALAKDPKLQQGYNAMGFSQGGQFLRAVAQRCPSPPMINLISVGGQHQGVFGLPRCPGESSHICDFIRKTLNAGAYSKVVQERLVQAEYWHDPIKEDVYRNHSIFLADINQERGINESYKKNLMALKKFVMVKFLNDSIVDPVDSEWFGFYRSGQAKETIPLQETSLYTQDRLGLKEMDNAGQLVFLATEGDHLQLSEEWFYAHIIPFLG
Experimental: as §1, §2

MS4A1 = target: T7, MS4A1 (human, UniProt P11836)
T7 construct: expressed in transfected HEK293 cells; also called CD20
T7 sequence (looked up): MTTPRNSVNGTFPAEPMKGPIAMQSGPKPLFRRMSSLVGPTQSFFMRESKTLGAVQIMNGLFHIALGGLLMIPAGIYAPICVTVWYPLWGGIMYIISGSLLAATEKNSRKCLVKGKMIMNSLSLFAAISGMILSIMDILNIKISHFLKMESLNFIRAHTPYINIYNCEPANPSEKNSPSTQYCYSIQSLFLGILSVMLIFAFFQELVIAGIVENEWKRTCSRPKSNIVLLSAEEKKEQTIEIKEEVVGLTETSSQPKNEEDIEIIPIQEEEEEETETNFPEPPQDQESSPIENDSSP
Experimental: as §1, §2

KRT19 [4] = target: T1, KRT19; remark: listed apart in the source
Experimental: as §1, §2

TGM2 [5] = target: T3, TGM2; remark: listed apart in the source
Experimental: as §1, §2

EDN1 = target: T8, EDN1 (human, UniProt P05305)
T8 construct: expressed in transfected HEK293 cells
T8 sequence (looked up): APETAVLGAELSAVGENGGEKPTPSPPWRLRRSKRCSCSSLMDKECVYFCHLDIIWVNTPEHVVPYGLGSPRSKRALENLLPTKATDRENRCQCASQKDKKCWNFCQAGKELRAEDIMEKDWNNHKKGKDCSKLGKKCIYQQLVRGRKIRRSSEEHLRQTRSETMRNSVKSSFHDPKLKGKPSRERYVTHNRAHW
Experimental: as §1, §2

PPT1 [6] = target: T6, PPT1; remark: listed apart in the source
Experimental: as §1, §2

Measured: binding result

T2 sequence (P26038 2-577 limits assumed): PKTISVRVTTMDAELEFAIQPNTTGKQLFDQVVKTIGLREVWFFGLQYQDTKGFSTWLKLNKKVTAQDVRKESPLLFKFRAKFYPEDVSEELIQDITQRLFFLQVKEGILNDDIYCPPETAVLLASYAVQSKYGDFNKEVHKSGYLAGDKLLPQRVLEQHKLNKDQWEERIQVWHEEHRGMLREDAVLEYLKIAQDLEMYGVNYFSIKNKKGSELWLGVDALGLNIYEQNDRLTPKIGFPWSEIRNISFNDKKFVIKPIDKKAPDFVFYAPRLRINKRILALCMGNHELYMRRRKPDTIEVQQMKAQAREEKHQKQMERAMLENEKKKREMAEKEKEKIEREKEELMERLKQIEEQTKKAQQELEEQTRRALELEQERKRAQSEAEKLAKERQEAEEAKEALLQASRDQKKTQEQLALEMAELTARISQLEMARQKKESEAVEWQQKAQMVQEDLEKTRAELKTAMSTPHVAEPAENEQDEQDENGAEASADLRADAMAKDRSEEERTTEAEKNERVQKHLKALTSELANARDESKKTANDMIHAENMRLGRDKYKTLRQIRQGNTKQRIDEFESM

B1: humanized h37M, human IgG1 (antibody, V domains shown)
VH: QVQLVQSGAEVKKPGASVKLSCKASGYTFTDYYINWVRQAPGKGLEWIARIYPGSGNTYYNEKFKGRATLTADKSTSTAYMQLSSLRSEDTAVYFCARGVYYFDYWGQGTTVTVSS
VL: DIVMTQSPSSLSASVGDRVTITCKASQNVRTNVAWYQQKPGKAPKALIYSASYRYSGVPDRFTGSGSGTDFTLTISSLQPEDFADYFCQQYNSYPRTFGGGTKVEIK
notes: human IgG1; terbium-labelled as the tracer of the HTRF assays; also called C-KIT-h37M; h37M-IgG1
no binding (tested: 2 µg/ml): KRT19 [1] | MSN | TGM2 [2] | ZG16B | OSM | PPT1 [3]

B2: MH1, human IgG1 (antibody, V domains shown)
VH: QVQLVQSGAEVKKPGASVKVSCKASGYTFTDYYMNWVRQAPGQGLEWMGRIYPGSGNTYYAQKFQGRVTMTRDTSTSTVYMELSSLRSEDTAVYYCARGVYYYDYWGQGTLVTVSS
VL: DIQMTQSPSSLSASVGDRVTITCRASQGIRTNLAWFQQKPGKAPKSLIYAASSLQSGVPSRFSGSGSGTDFTLTISSLQPEDFATYYCQQYNSYPRTFGGGTKVEIK
notes: IgG1; also called IgG1-MH1
no binding (tested: 2 µg/ml): MS4A1 | KRT19 [4] | TGM2 [5] | EDN1 | PPT1 [6]
